# Data from paper PMC3865253.
# Legend:
# GFP-ICAC1-83 (rat) = assay: co-IP; 293T cells co-transfected with myc-PICK1 and GFP, GFP-ICA69 or a GFP-tagged truncation; RIPA lysate; precipitated with anti-GFP antibody on protein A-sepharose; blot with anti-myc; quantified as Co-IP myc/Input myc, normalized to the ICA69 group; 4 independent cultures
# GFP-ICAC84-224 (rat) = assay: as above
# YFP-ICAC84-224 (rat) = assay: FRET or BRET; living HEK293T cells co-expressing CFP- and YFP-tagged proteins; three-filter imaging; normalized FRET signal N_FRET (Eq. 1); when FRET occurs N_FRET is greater than 0.2
# Sequence of YFP-ICAC84-224 (rat) (Q63054 whole entry): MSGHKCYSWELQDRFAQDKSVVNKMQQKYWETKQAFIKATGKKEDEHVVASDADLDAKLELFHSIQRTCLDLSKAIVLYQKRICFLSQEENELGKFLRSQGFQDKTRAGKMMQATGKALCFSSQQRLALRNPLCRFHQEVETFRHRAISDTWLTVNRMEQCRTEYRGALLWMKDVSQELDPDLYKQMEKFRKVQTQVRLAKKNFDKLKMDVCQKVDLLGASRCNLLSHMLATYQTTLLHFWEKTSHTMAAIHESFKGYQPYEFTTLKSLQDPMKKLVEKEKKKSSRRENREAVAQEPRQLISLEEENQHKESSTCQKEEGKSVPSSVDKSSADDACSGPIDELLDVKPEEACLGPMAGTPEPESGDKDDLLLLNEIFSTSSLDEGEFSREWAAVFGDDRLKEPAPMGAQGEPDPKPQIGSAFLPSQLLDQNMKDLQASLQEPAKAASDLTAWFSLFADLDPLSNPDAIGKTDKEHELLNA
# Sequence of GFP-ICAC84-224 (rat) (Q63054 whole entry): as above
Substance,percentage of precipitated protein normalized to ICA69 group (GFP-ICAC1-83 (rat)) [%],percentage of precipitated protein normalized to ICA69 group (GFP-ICAC84-224 (rat)) [%],N FRET (YFP-ICAC84-224 (rat))
myc-PICK1 (protein interacting with C-kinase 1) (from UniProt Q9EP80 1-416) (natural protein),11,66,
CFP-PICK1 (from UniProt Q9EP80 1-416) (natural protein),,,0.86
